# T1: MERS-CoV spike antigens (bead panel) (MERS-CoV, UniProt K9N5Q8 18-1296)
# T1 sequence: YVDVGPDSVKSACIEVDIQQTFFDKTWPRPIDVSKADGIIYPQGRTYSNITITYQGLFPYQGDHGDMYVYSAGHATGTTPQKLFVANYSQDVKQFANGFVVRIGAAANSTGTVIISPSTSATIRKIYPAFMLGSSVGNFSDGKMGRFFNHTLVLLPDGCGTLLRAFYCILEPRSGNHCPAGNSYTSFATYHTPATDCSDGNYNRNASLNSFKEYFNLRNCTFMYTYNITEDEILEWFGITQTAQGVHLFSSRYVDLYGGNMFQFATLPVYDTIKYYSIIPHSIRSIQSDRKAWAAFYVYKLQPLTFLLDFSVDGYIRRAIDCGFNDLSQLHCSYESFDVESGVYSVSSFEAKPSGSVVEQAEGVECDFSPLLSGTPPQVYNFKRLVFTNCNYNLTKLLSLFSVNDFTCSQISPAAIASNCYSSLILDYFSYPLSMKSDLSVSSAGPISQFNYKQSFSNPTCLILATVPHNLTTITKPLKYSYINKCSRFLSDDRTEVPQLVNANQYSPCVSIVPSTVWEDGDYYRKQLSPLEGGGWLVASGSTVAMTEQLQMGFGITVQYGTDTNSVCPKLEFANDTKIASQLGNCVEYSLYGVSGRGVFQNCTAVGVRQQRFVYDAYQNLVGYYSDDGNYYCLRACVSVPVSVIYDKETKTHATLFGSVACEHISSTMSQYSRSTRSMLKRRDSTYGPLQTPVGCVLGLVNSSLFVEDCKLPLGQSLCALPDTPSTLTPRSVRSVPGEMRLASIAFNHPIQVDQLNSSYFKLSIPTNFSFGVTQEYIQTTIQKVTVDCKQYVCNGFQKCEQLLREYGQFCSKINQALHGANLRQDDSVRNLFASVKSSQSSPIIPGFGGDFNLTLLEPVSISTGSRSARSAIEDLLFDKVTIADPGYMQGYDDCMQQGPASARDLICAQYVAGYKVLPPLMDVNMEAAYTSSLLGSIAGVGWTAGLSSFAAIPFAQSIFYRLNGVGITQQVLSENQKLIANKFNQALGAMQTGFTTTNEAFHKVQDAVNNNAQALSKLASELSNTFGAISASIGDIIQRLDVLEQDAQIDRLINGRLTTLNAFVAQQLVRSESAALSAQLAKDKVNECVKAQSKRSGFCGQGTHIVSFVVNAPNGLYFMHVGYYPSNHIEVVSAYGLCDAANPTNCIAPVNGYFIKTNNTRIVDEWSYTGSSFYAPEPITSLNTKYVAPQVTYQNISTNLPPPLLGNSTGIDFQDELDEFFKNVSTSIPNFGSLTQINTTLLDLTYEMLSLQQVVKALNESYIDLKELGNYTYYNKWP
# Columns and labels:
# [1] = molecular target: SARS-CoV-1 spike antigens (bead panel) (SARS-CoV-1, UniProt P59594 14-1195); test: multiplex bead assay
# [2] = molecular target: T1, MERS-CoV spike antigens (bead panel); test: multiplex bead assay
# [3] = molecular target: SARS-CoV-2 S on pseudovirions (Wuhan Hu-1 / IL1/2020, last 18 amino acids removed) (SARS-CoV-2, UniProt P0DTC2 14-1273); test: cell-based or functional assay
Binder,binding result [1],binding result [2],"Mean IC50, pSV neutralization [3]","Mean IC80, pSV neutralization [3]"
"COV_3053 (antibody, V domains shown, human IgG1) VH: EVQLVESGGGLVQPGRSLRLSCTASGFTLGDYAMTWVRQAPGKGLEWLGIIRNKRYGETKQYAASVKGRFTFSRDDSKGIGYLQRLSLKIEDTGVYYCTREHIVRDDAFDVWGQGTTVTVSS VL: DIVMTQSPDSLAVSLGERATINCKSSQSVLYSSNNKNYIAWYQQRPGQPPKLLIYWTSTRASGVPDRFSGSGSGTDFALTISSLQAEDVAVYYCQQYYTIPRTFGQGTKVEIK",no binding,no binding,–,–
"COV_1118 (antibody, V domains shown, human IgG1) VH: EVQLVESGGGLVKPGGSLRLSCAASGFSFSNYNMNWVRQAPGKGLEWVSYISSSSSYIYYADSVKGRFTISRDNAKNSLYLQMNSLRGEDTAVYSCAREASGAYYFDRSGYFDYWGQGTLVTVSP VL: not shown",no binding,no binding,–,–
"COV_1136 (antibody, V domains shown, human IgG1) VH: EVQLVESGGGLVKPGGSLRLSCAASGFTFSDCNMNWVRQAPGKGLEWVSSISSRSSYIYYADSVKGRFTISRDNAKNSLYLQMNSLRAEDTAVYSCAREASGAYYFDRSGYFDYWGQGTLVTVSP VL: DIQMTQSPSTLSASVGDRVTITCRASQSISSWLAWYQQKPGKAPNLLIYKASSLESGVPSRFSGSGSGTEFTLTISSLQPDDFATYYCQQYNTYPWTFGQGTKVEIKR",no binding,no binding,–,–
"COV_1154 (antibody, V domains shown, human IgG1) VH: EVQLVESGGGLVKPGGSLRLSCAASGFRFSDYNMNWVRQAPGKGLEWVSYISSSSSYIYYADSVKGRFTISRDNAKNSLYLQMNSLRGEDTAVYSCAREASGAYYFDRSGYFDYWGQGTLVTVSP VL: DIQMTQSPSTLSASVGDRVTITCRASQSISSWLAWYQQKPGKAPNLLIYKASSLESGVPSRFSGSGSGTEFTLTISSLQPYDFATYYCQQYNSYPWAFGQGTKVEMKR",no binding,no binding,–,–
"COV_1184 (antibody, V domains shown, human IgG1) VH: QVQLQQWGAGLLKPSETLSLTCAVYGGSFSGYYWSWIRQPPGKGLEWIGEINHSGNTTYNPSLKSRVTISVDTSKNQFSLKLSSVTAADTAVYYCARGLVITYYYDSSGKPFDPWGQGTLVTVSS VL: not shown",no binding,no binding,–,–
"COV_1145 (antibody, V domains shown, human IgG1) VH: QVQLVESGGGVVQPGRSLRLSCAASGFTFSSYGMHWVRQAPGKGLEWVAVIWYDGSNKYYADSVKGRFTISRDNSKNTLYLQMNSLRVEDTAVYYCAREGQLGATGLDCWGQGTLVSVSS VL: SYELTQPPSVSVSPGQTARITCSGDALPKKYAYWYQQKSGQAPVLVIYEDSKRPSGIPERFSGSSSGTMATLTISGAQVEDEADYYCYSTDNSGNHWVFGGGTKLTVLG",no binding,no binding,–,–
"COV_1177 (antibody, V domains shown, human IgG1) VH: QVQLVESGGGVVQPGRSLRLSCAASGFTFSSYGMHWVRQAPGKGLEWVAVIWYDGSNKYYADSVKGRFTISRDNSKNTLYLQMNSLRAEDTAVYYCARDPLGAVAGYFDYWGQGTLVTVSS VL: SYVLTQPPSVSVAPGQTARITCGGNNIGSKSVHWYQQKPGQAPVLVVYDDSDRPSGIPERFSGSNSGNTATLTISRVEAGDEADYYCQVWDSSSDHHWVFGGGTKLTVLG",no binding,no binding,–,–
"COV_2196 (antibody, V domains shown, human IgG1) VH: QVQLVQSGAEVKKPGASVKVSCKVSGYTLIELSMHWVRQAPGKGLEWMGGFDPEDAKTIYAQKFQGRVTMTEDTSTDTAYMELSSLTFEDTAVYYCATTPAFMAAAGDFDYWGQGTLVTVSS VL: QPVLTQPSSVSVSPGQTATITCSGDVLAKKYARWFQQKPGQAPMLVIYKDTERPSGIPERFSGSSSGTTVTLTINGAQVEDEADYYCYSAAAWVFGGGTKLTVL",no binding,–,0.02 µg/ml,23.4 µg/ml
